The values below come from the NTF2 design screens of Basanta et al. (2020).

A short description of the data set: protease stability score; higher = more stable; yeast display proteolysis, trypsin and chymotrypsin.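 Also: relative to predicted unfolded state with 0 unfolded-like and 1 meaning tenfold more protease.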
Take “SEEEEEAQRFFEEWSKSWVTGDEDLTLHLLDPNVKVDIGDKVYHGRESYLELLHLILREARVHSFHMHRLEVIGEKANIDSRVDHEVGDKRDTVHMNMIVVKINGRWILKSIQIK”: the protease stability score stood at 2.58.
“SEEEEEARDILKMLFTALDTGNEEYFLNLIDPNVRISVGNYTIVGREQWTEHMRRVKNMQIDDISIKDIKFQGELLRIHGHLVGRFDGQHSHFHVDIIFRKVNGQWHQKEIIIK”: the protease stability score worked out at 1.99.
As for “SEEEEEARKAFDDFYKSLETGDEEDLSKMIDPHVRIDINGREVHGREYAQTFWRDLIEKVKNLTLHLRDFRVIDGRLHSKMEIHQGEFHTEVNIHSKKINGRWLVQTFEFR”, the figure is 1.84; as for “SEEEEEARKFSEDLIRSTRTGDEKAWNDLLDPDVRIDINGKTHHGREEFLKLLQHLRERADHWRIELKHTDVYDGKVHHDIHVQISVGDKTFHHRIHLIVVKIDGKWLLKRVDVR”, 2.16.
As for “SEEEEEAWRSTEKWTHSEKTGDFESLLRLADPNARVHVNGRELVGMETVIRRFIEHVERFKNIRIQHHTEHIEFYGDKVIIDSRLHISIGDKTITITIELVTTKFNGRWLLQEITIK”, the figure is 0.475; as for “SEEEEEFRERLRILYEKLLTGDWRFFLKLADPNVRSIIDGRTWIGRDEFETAMRKFDEDLGFDHTHIRHYHIQGEKVQIHFEVRQGDKRITVEINLVIVNGRYKFVELRLSIH”, 1.4.
As for “SEEEEEFRRAVEFIERTIQTGDERILRELADPHVRLEIGDKHDHGRERVVEIWVSIFEKFKNARWEIRDVKVIDGKIYIDGSLIIDGKEHQTLIVSEKVNGRWHLKSIHIH”, the figure is 2.17; as for “SEEEEEHEELMRLMESTVRTGDFELFEKLADPNVRINIDGKDVHGREEFLEHWVRRWRDLGVNHLRIEHRRVYNGVIIIKVKILVNGREITLHIEARKVDGRWSVHKVEQH”, 2.25; as for “SEEEEEIEKMVRHMIHNLLTGNEDVIDKFVDPHVQLHINGRDIHGRENIRREIRRTLEELGVDHWIVHHIEIRRVGDKAIAINHGTIVINGRNVDTEFIFWLHKVNGRWMVHSYEIRIR”, 1.4.
Turning to “SEEEEEIERMFKDWSRAVRTGDEERYDHLADPNVRIHIGDKDVHGRENFIKYLHHIRIRDVRLRDFRIYDGRVELDIEVDRHVNGRDDRTQVIMVLLKFNGQWHVESVYVK”, the protease stability score is 1.2.
Under “SEEEEEIERYVQHLVHNILTGDWEMIQELADPNAKIDIDGRHFHGREQFVDLMLRLIESLGIDHLRLTHVRIQGDYMELHVEVHVGDKRVELESFATKIDGRWFVKSFTKR” stands 1.97; under “SEEEEEIKTWTDLFINLWMTGDFHTLVHLLDPNVKAEIDGVDVHGRESVEKMLRIFIKRLGADHSDVRDSSIVNGRLDIELESDVNGRIRTIDIHVLIINGRVKSLKVDIR”, 2.46.
Consider “SEEEEEIRRTIEMLLKAWQTGDEEFWMRLFDPHYRFEINGKVYHGREVMRLERRRIDYIHRVEYRIDHIDTQGDKVIIRFTLHLDVEFDGVRTELHEHRVIIIEKVNGQWRLKSVEIE”, for which the protease stability score was 1.46.
As for “SEEEEELKKFLDIFLRALRTGDFDESLRLMDPRYRSIVGDKRHIGMENLYRWLTEMRIERVHFELDSFRIQGNKLEIDIRNDVDGQIDGKQFRIEFEVHIHMEKYNGKWVVHVLEIR”, the figure is 0.932; as for “SEEEEELKRALKIIIEVMLTGDEKTHHELADPHARLEIHQGNYIEHQHGREIVDKVLRDWIEKLGIDHLHLERVDKQGNKLFVHVHVKVGDKHSKLDIVASKVDGRWVLHEVRIIDE”, 1.84.
For the sequence “SEEEEELRIANELVKRSLDTGDEDLERELADPNTRVNYGDKILHGRHEVVRWLRRIDHIHVHWRDVRIYNGRIEMDGRLVLRVGDKSFSLETRIYMEKVDGQWVIKDHEIR”, the protease stability score stood at 0.314.
As for “SEEEEELTKWKKILEEALKTGDWRLIEELFDPHVRFIINGRHIHGMEVRLKEQEELGVNHESQELRDKHIEHQGDKVVINGHLNKIVFVNGKDLHDRYDIIFIYTKINGRWYVKRMIVN”, the figure is 0.502; as for “SEEEEEMEKVAKRWFWAVLTGNEDELHELLDPEAKSDVNGRDTHGREEVVRLMTEHVEKLGVDHVKVHDVKIQGNKFHFDGILIFNGVTVHSRVELDLINGKVHYMSIKLQ”, 1.1.
“SEEEEEMERILKYIFRLLTTGNWKELTDNLDPDVRIIIGDKTLIGREEFQRKFKDDHDKFKNMRLEIKDSHMQGDKIIIHLQVDIGDKHFEVIIYVVKINGRWHLKTLEIR” gave a protease stability score of 2.09.
As for “SEEEEEMKLAKRLLENISETGDERELEELLDPNVRIVIGDKHEHGRESVEHWFRRIDHIKHFEIERVTVFDGRVEMHGRMVGTINGKHKNTRITLIAVKINGRWVLQHRILE”, the figure is 0.245; as for “SEEEEEMKRFIEDELRAWRTGDEDLIHEQFDPHVRVIIGEFEYHGRELLHEMFNRIDHIEHIELRIHHVHLQGDKAHLEVEEREHGVFDGKRINVSREINIIIHKIDGRWVHTIIIIE”, 0.606; as for “SEEEEEMRFFMEVWIHDLRTGDFESLHKNADPRTRVEINGVELHGREHFTEWAERIKGAKFEVKDFKIQGDKVILHGKFSVNGVEHEMTVIFLKVNGRWLQESMTLK”, 0.603.
As for “SEEEEEMRHHLEIFIESLRTGDEDEIANNADPNWINVVGDKENIGREHILTWYERFYEEIRIHDMKIRHVDVQGEKMRVEGELNKDVNGREIRTEHRWEFDIVNGRLRSLQVRVK”, the figure is 0.919; as for “SEEEEEMRRMVDDIFRMLLTGDWRDFLHLADPTVRLHIGDKQAHGRTQVFELLKLYLHEWREKTIVHESIHHINGVSIIHGSLRVRINGQEHEFKVTWNIFIYDGRLKSMEIRFH”, 0.337; as for “SEEEEEMRRWFEILIRAIRTGDEHVLKRLIDPDAQEDVNGKRIHGMEDMSRLLSEMRIKSWEIRRSHFVGNKIELDGHRRGHVNGRDIDDHVIIHILKIDGKWTLHRVEVS”, 2.12.
Consider “SEEEEENRKRVEFFKKVWETGDEHSMEELMDPNVRLRIVVNGRHEHYHGREEVVHILQDELRKIKNVKVNLKRIDVVDGRAHSDIHVDQGDWRMKMEVILIKVNGRWRMKELELHVI”, for which the protease stability score turned out to be 1.78.
As for “SEEEEESKIISKLAIEETKTGDFESIRRNADPRARSDVDGQEMHGRELLEHIFRWIIEKAGVDKVETDLHELRIVGDKVHVRTKLHIGDWRIEVEIIVRKINGRWHLHSMRFSLR”, the figure is 0.646.
Turning to “SEEEEESKYALKIERELLYTGDWHLLTRYADPDVRATINGQKVIGRELFSHIFLEELDKLGMRIHDIRETHWTLINGVAIHHMRINTRQGEKSYHTEMNLISLKVDGRWLIQSYELG”, the protease stability score stood at 0.523.
Under “SEEEEESRFMFELIEHFLKTGNWEMISKLADPNMKTVINGKTYHGREMLIHEFEKLGADHITIHDYKDIDGQVIIHTRIHVGDKTYDVVIISEKVDGKWHLKEIHIR” stands 1.99; under “SEEEEESRHAIEMTLKTLITGDEHMIQDLADPRAQTHYGDKEYHGREELFRLMHEFILKIKNLRIELHDHHIQGDKIILDVRWRFDGKSFHVTIESRKINGRWLHHIFIVK”, 0.582; under “SEEEEESRKMLELFKELLETGDEEDMTKLADPNVRIIYDGKHLHGRHVAHDVWHELSNRVKNAKFHFDVIKIVGEKVILEITIHVDGQDIESSTILDKFNGKWYMEEVFFH”, 1.92.
Under “SEEEEESRRFMQHMSRSLATGDWRQVRNLLDPHVRTDINGRDLHGWRDYVRHVLELGIKHIHIEDIRLVGDYAHIDGEMDVNGRDVRVHILVLKINGRWVIESEELK” stands 0.427; under “SEEEEETEEVADLHLETLKTGNEDLLEDLLDPNVRVIVNGKHHIGRHFLLKWVTEFGIKHFELKRREIDIQGEKADIHIQGNMYFNGRTVRAHIHQEVTKFDGRWFNHRVEIEFK”, 1.84.
Turning to “SEEEEETRKFAHDLVNIHRTGDERKINDLFDPHVRVHIGNKEIVGRELFARWMHEFLLKHGFTEEIRIDDVDLYGNKAHIDGTLIIRINGVEHRHRVELIVNKINGKWLMEYVRVR”, the protease stability score is 1.6.
Under “SEEEEEVEEFIHIFTESLKTGDEHSLRRLVDPHVRIEWNGRTHHGWQMFTRLVREARVEIVVRDIRVINGRAIINGELRYEQGDKTFTTEIEIIVVKFDGKWHMHHVRYK” stands 2.21; under “SEEEEEVHKFMEDLARAYLTGDEKRFRELVDPNVKSNIDGQTIHGREELTKWVSDSAKKYGVDHLEMRVRTINIQGNKAHMDGEIVLEYGDKRVSRQVEIVVTKINGQWLLEREHIH”, 1.88; under “SEEEEEVLRFLKEWIHRLRTGDEDILRELLDPDVRIEAENRESHGREEATRLLSEIRFEHFFIESIKVQGNKVSIHGRVHGVINGKKFKHHIHIILVKVNGKWQFREIDIH”, -0.107.
Under “SEEEEEVVRIWKLLLELEKTGNEENIARLADPHVRTDINGQESHGREHLAKLVRHLFHEIRIKDFKIRRLELQGEKLIVDGELHGNYDGQHEVVDTEIHIYVVNGKLKSITVRHH” stands 1.47; under “SEEEEEWHRLIEHWMRKWLTGDEERLARLADPNVRLEDENHQSHGREEMARFLHEKILKLGVDHTRIRHYRDQGEYLHLDFEVEINGRRVRVKVHVVIIDGVVKELKFHVE”, 1.19.
Under “SEEEEFAERLVRMFEEELATGDEHKLQRLLDPHVKVEINGREIIGREEWTNHLDHIRLELHDTKLREVRVQGDKIHVHGKTDIIIKVGDKSERHHVEVLFIIKKINGRWILERVHVR” stands 1.13; under “SEEEEFARQMMEHFLKNFITGNEELFKENLDPDVRIIIVVNGREFENVGREHFWHHFRRSFEELGVKHLHLKDIRVINGRLFLFAEIEIGDKRVELHFLVLKVDGKWVIEELHIKFL”, 2.32; under “SEEEEFLEKLMREFVHDLLTGDEDRIRELADPHVKFEMDVNGVRFRAHGREEMLRELRRFWKEIRVKHIQTHDVKNVGDKAHSDVREVVEVDGREERHESEIIVVTINGRMQSVVLIFK”, 1.52.
As for “SEEEEFSHNLLNFMLHVIHTGDFDLLLDLMDPDTRVDINGKRHHGRDAMRIWVTLLGIERVETDVHHISIYGDKARIDGRVHYNGKTQRFEIHSRKIDGKWLNTEIKWD”, the protease stability score was determined as 1.09.
On to “SEEEEFTKLLLELLAHALRTGDESMLQYLADPNVRIDINGKELHGMEVLTHWLRRIDHIDSFFHIDHIDLVDGKLKVNGRTELIVRQGDKSHHSEWDVRIISDKVNGRWLLESISFK”, for which the protease stability score worked out at 2.08.
The sequence “SEEEEFVELAVRLFLETMRTGDEKDINRLADPHTRNIVNGRDIIGREELTRQLHEILHFFKNVQVHIEEVRWQGNYIVLKILWNFDGQTMEVHVYARKIDGRWVETEFEFR” came in with a protease stability score of 2.08.
Under “SEEEEFVEVAIKIVQEIRKTGDEDEQERLADPHVRFDINGQDIHGREKWTKWVHEIRVRMKHVRERHITVINGKAHIHGEVDVHFHVNGVELRIDTKYTVVIEKVNGRWRLREVHLV” stands 2.22.
As for “SEEEEFWKHIAKVMLDLVTTGNEDLFMKMADPNTKSEFNGRTVVGRERIAEILKKFKNITIIIHHIDIQGEKVRIHGRVLIGDKEIEDDWELVVVDGKIQRLHFEHV”, the figure is 1.29.
